Patent US6756357 (ISTITUTO DI RICHERCHE DI BIOLOGIA MOLECOLARE DI ANGELETTI S …, dated 2004)
Positions count from the first letter of the chain named. Numbers in names are those of the source.

T1: CNTFRα-myc (soluble extracellular domain of the CNTFRα receptor) (UniProt P26992 23-342)
T1 construct: extracellular domain; Captured on plates or protein A-Sepharose through the anti-myc antibody 9E10; also called CNTF receptor α; soluble CNTFRα receptor
T1 sequence (looked up): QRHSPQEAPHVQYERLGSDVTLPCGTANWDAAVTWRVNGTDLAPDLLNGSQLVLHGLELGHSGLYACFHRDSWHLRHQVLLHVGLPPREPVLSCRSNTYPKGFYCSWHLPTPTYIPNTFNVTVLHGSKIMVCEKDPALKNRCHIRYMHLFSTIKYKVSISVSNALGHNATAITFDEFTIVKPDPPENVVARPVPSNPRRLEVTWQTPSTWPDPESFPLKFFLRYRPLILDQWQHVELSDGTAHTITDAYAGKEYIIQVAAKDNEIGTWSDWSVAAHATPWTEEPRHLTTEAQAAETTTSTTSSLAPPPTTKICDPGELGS

T2: cellular LIF receptor on HepG2 cells (human, UniProt P42702 45-1097)
T2 sequence (looked up): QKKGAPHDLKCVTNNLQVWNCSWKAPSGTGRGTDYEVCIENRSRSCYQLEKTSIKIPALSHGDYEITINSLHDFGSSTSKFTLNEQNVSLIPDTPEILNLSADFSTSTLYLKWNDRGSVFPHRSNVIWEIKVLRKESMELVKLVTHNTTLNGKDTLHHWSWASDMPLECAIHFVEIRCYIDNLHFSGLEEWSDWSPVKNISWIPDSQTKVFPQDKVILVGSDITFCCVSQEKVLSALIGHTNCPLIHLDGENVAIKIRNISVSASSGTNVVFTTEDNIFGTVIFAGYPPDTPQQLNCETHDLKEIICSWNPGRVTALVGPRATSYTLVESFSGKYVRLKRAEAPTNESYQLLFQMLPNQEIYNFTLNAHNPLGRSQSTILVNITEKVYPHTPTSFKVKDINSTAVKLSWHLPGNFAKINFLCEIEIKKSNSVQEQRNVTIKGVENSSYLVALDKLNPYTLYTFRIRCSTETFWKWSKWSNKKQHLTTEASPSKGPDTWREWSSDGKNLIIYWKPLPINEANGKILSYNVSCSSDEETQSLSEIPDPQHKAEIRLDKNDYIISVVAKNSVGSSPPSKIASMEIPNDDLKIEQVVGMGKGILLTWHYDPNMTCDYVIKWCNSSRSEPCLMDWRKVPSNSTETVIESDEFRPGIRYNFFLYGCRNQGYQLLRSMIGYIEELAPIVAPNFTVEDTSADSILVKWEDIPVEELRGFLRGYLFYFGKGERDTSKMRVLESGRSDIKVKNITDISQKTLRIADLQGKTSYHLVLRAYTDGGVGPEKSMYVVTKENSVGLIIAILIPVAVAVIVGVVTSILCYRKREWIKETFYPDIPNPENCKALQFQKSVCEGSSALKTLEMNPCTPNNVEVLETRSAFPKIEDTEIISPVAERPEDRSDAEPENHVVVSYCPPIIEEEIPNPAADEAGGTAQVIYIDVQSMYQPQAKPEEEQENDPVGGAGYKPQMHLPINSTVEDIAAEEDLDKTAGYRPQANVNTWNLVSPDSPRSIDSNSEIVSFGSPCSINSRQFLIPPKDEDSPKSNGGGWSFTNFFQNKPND

T3: soluble LIFR (LIF receptor) (UniProt P42702 45-833, limits assumed, 35S-labelled in the test of FIG. 1B)
T3 construct: also called LIFR marked with 35S
T3 sequence (looked up): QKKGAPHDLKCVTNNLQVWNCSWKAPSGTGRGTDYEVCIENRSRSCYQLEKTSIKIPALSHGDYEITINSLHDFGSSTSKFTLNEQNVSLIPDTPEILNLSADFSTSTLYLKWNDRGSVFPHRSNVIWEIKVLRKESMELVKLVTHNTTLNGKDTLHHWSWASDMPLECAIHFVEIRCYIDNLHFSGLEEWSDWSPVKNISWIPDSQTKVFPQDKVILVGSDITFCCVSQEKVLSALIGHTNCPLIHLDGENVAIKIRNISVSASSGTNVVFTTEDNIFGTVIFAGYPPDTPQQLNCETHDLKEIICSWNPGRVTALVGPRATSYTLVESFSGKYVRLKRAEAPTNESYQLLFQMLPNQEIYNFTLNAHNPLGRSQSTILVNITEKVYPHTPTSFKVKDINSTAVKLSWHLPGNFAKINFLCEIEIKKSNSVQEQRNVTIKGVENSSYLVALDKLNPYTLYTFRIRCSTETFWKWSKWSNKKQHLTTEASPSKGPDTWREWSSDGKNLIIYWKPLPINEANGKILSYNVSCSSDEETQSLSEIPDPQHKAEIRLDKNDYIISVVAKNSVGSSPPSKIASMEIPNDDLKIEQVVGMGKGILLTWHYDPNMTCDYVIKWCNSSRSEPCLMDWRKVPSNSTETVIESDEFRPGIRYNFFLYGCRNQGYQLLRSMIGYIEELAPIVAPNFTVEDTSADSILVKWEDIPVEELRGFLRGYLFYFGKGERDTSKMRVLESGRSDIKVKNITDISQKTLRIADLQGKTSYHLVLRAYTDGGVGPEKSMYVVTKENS

T4: membrane-bound CNTFRα receptor on IMR-32 cells (human, UniProt P26992 23-342)
T4 sequence (looked up): T1 sequence (looked up)

B1: Lys155Ala/MUT-DH (ligand, human, UniProt P26441 1-200, looked up)
chain: MAFTEHSPLTPHRRDLCSRSIWLARKIRSDLTALTESYVKHQGLNKNINLDSADGMPVASTDQWSELTEAERLQENLQAYRTFHVLLARLLEDQQVHFTPTEGDFHQAIHTLLLQVAAFAYQIEELMILLEYKIPRNEADGMPINVGDGGLFEKALWGLKVLQELDHWTVRSIHDLRFISSHQTGIPARGSHYIANNKKM
notes: also called FADH-CNTF; FA/DH
B2: Lys155Ala/CNTF (ligand, human, UniProt P26441 1-200, looked up)
chain: B1 chain with D166S, H167Q
notes: also called FA-CNTF
B3: MUT-DH (Ser166Asp/Gln167His/CNTF) (ligand, human, UniProt P26441 1-200, looked up)
chain: B1 chain with A155K
notes: also called DH-CNTF; S166D/Q167H/CNTF
B4: Phe152Ala/Lys155Ala/hCNTF (ligand, human, UniProt P26441 1-200, looked up)
chain: B1 chain with F152A, D166S, H167Q
notes: also called Phe152Ala/Lys155Ala/CNTF; AA-CNTF
B5: Phe152Ala/MUT-DH (ligand, human, UniProt P26441 1-200, looked up)
chain: B1 chain with F152A, A155K
notes: also called AKDH-CNTF; AK/DH
B6: human ciliary neurotrophic factor (hCNTF) (ligand, UniProt P26441 1-200, looked up)
chain: B1 chain with A155K, D166S, H167Q
notes: also called wild-type CNTF; wt
B7: Phe152Ala/Lys155Ala/MUT-DH (ligand, human, UniProt P26441 1-200, looked up)
chain: B1 chain with F152A
notes: also called AADH-CNTF; AA/DH

How the values were obtained:
[1] = target: T1, CNTFRα-myc (soluble extracellular …); experiment: solid-phase competition with biotinylated CNTF or biotinylated MUT-DH for immobilised CNTFRα-myc, soluble gp130 present
Description: The ability of CNTF variants to compete with biotinylated CNTF ([…]) for binding to the extracellular domain of the CNTFRα receptor was determined in a solid-phase binding assay, in the presence of soluble gp130, as described in preceding publications (19). "Microtiter" 96-well polystyrene culture plates were covered with […] of 50 mM sodium carbonate pH 9.5, containing […] of the monoclonal antibody 9E10, which is directed against a c-myc epitope, and the plates are then preserved at 4° C. for one night. The wells were then washed out five times with TBS (50 mM Tris-HCl, pH 7.5, 150 mM NaCl) containing 0.05% Tween and held for 90 minutes at room temperature in TBSMT (50 mM Tris-HCl, 150 mM NaCl, 5% (w/v) lyophilised non-fat milk). All subsequent incubations were carried out at room temperature on a mixer at a speed of 700 rpm, after each incubation period the wells were washed with TBS containing 0.05% Tween (five times each time). The following incubation periods were performed: (1) 2 hours with […] TBSMT containing […] of CNTFRα-myc; (2) 1 hour with […] of TBSMT containing 200 ng of gp130-flag, 5 nM biotinylated CNTF, and the various competitors and (3) 45 minutes with […] of TBS, 5% (w/v) of bovine serum albumin, 0.05% (v/v) Tween 20 containing 0.8 mg/ml avidin conjugated with alkaline phosphatase.
The alkaline phosphatase activity was determined at 37° C. using 1 mg/ml p-nitrophenyl phosphate in 1 M of diethanolamine-HCl, pH 9.8, and absorbancy at 405 nm was measured after 40–60 minutes using a suitable reader. In some experiments the biotinylated MUT-DH variant molecule (0.5 nM) as used as a ligand.

[2] = target: T2, cellular LIF receptor on HepG2 cells; experiment: cell-based or functional assay
[3] = target: T3, soluble LIFR (LIF receptor); experiment: immunoprecipitation of 35S-LIFR with immobilised soluble CNTFRα and variant, SDS-PAGE (FIG. 1B)
Description: It is known from the literature that the molecules gp130 and LIFR are able to bind independently to the CNTF/CNTFRα complex (11). To assess the functional importance of D1 motif residues the ability of CNTF variants to assemble receptor complexes with the different subunits was assayed. Bonding of the cytokine/CNTFRα complex to gp130 or LIFR marked with ^35S was determined using immunoprecipitation tests as described in the literature (11). The soluble CNTFRα receptor was immobilised on A-Sepharose protein using the monoclonal antibody 9E10 anti-myc and incubated with soluble gp130 or LIFR marked with sulphur ^35S, in the absence or in the presence of different amounts of CNTF variants (1 or 0.1 mg). After washing, the bound material was eluted and subjected to SDS-PAGE.

[4] = target: T4, membrane-bound CNTFRα receptor on …; experiment: cell-based or functional assay

Binder | Relative Binding ((IC50 of CNTF)/(IC50 of tested protein)) [1] [ratio] | haptoglobin secretion by HepG2 cells, without soluble CNTFRα (FIG. 2A) [2] | binding result [3] | inhibition of Chat activity induced by a subsaturating dose of CNTF in IMR-32 cells (FIG. 4B) [4]
B1 | 42 | ~20 % with respect to the maximum value | no binding (tested: 1 or 0.1 mg) | 
B2 | 1 | ~20 % with respect to the maximum value |  | 
B3 | 41 |  |  | 
B4 | 0.9 |  |  | 
B5 | 32 | ~20 % with respect to the maximum value | no binding (tested: 1 or 0.1 mg) | 
B6 | 1 |  |  | 
B7 | 51 |  | no binding (tested: 1 or 0.1 mg) | 70 fold excess over CNTF for 50% inhibition
